Assay results from patent publication US20230220021A1 (UNIVERSITY OF COPENHAGEN, published 2023).
Bridges are numbered along the chain shown (N, C = ends). [ ]: non-standard residue; d: D form.

B1: cyclic nNOS β-hairpin peptide T119A (peptide)
peptide: cyclo(THLETTFTGDGTPKAIRVTQ[dP]GQ)
SMILES: CC[C@H](C)[C@@H]1NC(=O)[C@H](C)NC(=O)[C@H](CCCCN)NC(=O)[C@@H]2CCCN2C(=O)[C@H]([C@@H](C)O)NC(=O)CNC(=O)[C@H](CC(=O)O)NC(=O)CNC(=O)[C@H]([C@@H](C)O)NC(=O)[C@H](Cc2ccccc2)NC(=O)[C@H]([C@@H](C)O)NC(=O)[C@H]([C@@H](C)O)NC(=O)[C@H](CCC(=O)O)NC(=O)[C@H](CC(C)C)NC(=O)[C@H](Cc2c[nH]cn2)NC(=O)[C@H]([C@@H](C)O)NC(=O)[C@H](CCC(N)=O)NC(=O)CNC(=O)[C@H]2CCCN2C(=O)[C@H](CCC(N)=O)NC(=O)[C@H]([C@@H](C)O)NC(=O)[C@H](C(C)C)NC(=O)[C@H](CCCNC(=N)N)NC1=O
B2: cyclic nNOS β-hairpin peptide T123A (peptide)
peptide: cyclo(THLETTFTGDGTPKTIRVAQ[dP]GQ)
SMILES: CC[C@H](C)[C@@H]1NC(=O)[C@H]([C@@H](C)O)NC(=O)[C@H](CCCCN)NC(=O)[C@@H]2CCCN2C(=O)[C@H]([C@@H](C)O)NC(=O)CNC(=O)[C@H](CC(=O)O)NC(=O)CNC(=O)[C@H]([C@@H](C)O)NC(=O)[C@H](Cc2ccccc2)NC(=O)[C@H]([C@@H](C)O)NC(=O)[C@H]([C@@H](C)O)NC(=O)[C@H](CCC(=O)O)NC(=O)[C@H](CC(C)C)NC(=O)[C@H](Cc2c[nH]cn2)NC(=O)[C@H]([C@@H](C)O)NC(=O)[C@H](CCC(N)=O)NC(=O)CNC(=O)[C@H]2CCCN2C(=O)[C@H](CCC(N)=O)NC(=O)[C@H](C)NC(=O)[C@H](C(C)C)NC(=O)[C@H](CCCNC(=N)N)NC1=O
B3: cyclic nNOS β-hairpin peptide V122A (peptide)
peptide: cyclo(THLETTFTGDGTPKTIRATQ[dP]GQ)
SMILES: CC[C@H](C)[C@@H]1NC(=O)[C@H]([C@@H](C)O)NC(=O)[C@H](CCCCN)NC(=O)[C@@H]2CCCN2C(=O)[C@H]([C@@H](C)O)NC(=O)CNC(=O)[C@H](CC(=O)O)NC(=O)CNC(=O)[C@H]([C@@H](C)O)NC(=O)[C@H](Cc2ccccc2)NC(=O)[C@H]([C@@H](C)O)NC(=O)[C@H]([C@@H](C)O)NC(=O)[C@H](CCC(=O)O)NC(=O)[C@H](CC(C)C)NC(=O)[C@H](Cc2c[nH]cn2)NC(=O)[C@H]([C@@H](C)O)NC(=O)[C@H](CCC(N)=O)NC(=O)CNC(=O)[C@H]2CCCN2C(=O)[C@H](CCC(N)=O)NC(=O)[C@H]([C@@H](C)O)NC(=O)[C@H](C)NC(=O)[C@H](CCCNC(=N)N)NC1=O
B4: cyclic nNOS β-hairpin peptide ΔT112 (peptide)
peptide: cyclo(THLETTFGDGTPKTIRVTQ[dP]GQ)
SMILES: CC[C@H](C)[C@@H]1NC(=O)[C@H]([C@@H](C)O)NC(=O)[C@H](CCCCN)NC(=O)[C@@H]2CCCN2C(=O)[C@H]([C@@H](C)O)NC(=O)CNC(=O)[C@H](CC(=O)O)NC(=O)CNC(=O)[C@H](Cc2ccccc2)NC(=O)[C@H]([C@@H](C)O)NC(=O)[C@H]([C@@H](C)O)NC(=O)[C@H](CCC(=O)O)NC(=O)[C@H](CC(C)C)NC(=O)[C@H](Cc2c[nH]cn2)NC(=O)[C@H]([C@@H](C)O)NC(=O)[C@H](CCC(N)=O)NC(=O)CNC(=O)[C@H]2CCCN2C(=O)[C@H](CCC(N)=O)NC(=O)[C@H]([C@@H](C)O)NC(=O)[C@H](C(C)C)NC(=O)[C@H](CCCNC(=N)N)NC1=O
B5: cyclic nNOS β-hairpin peptide ΔD114 (peptide)
peptide: cyclo(THLETTFTGGTPKTIRVTQ[dP]GQ)
SMILES: CC[C@H](C)[C@@H]1NC(=O)[C@H]([C@@H](C)O)NC(=O)[C@H](CCCCN)NC(=O)[C@@H]2CCCN2C(=O)[C@H]([C@@H](C)O)NC(=O)CNC(=O)CNC(=O)[C@H]([C@@H](C)O)NC(=O)[C@H](Cc2ccccc2)NC(=O)[C@H]([C@@H](C)O)NC(=O)[C@H]([C@@H](C)O)NC(=O)[C@H](CCC(=O)O)NC(=O)[C@H](CC(C)C)NC(=O)[C@H](Cc2c[nH]cn2)NC(=O)[C@H]([C@@H](C)O)NC(=O)[C@H](CCC(N)=O)NC(=O)CNC(=O)[C@H]2CCCN2C(=O)[C@H](CCC(N)=O)NC(=O)[C@H]([C@@H](C)O)NC(=O)[C@H](C(C)C)NC(=O)[C@H](CCCNC(=N)N)NC1=O
B6: cyclic nNOS β-hairpin peptide ΔT116 (peptide)
peptide: cyclo(THLETTFTGDGPKTIRVTQ[dP]GQ)
SMILES: CC[C@H](C)[C@@H]1NC(=O)[C@H]([C@@H](C)O)NC(=O)[C@H](CCCCN)NC(=O)[C@@H]2CCCN2C(=O)CNC(=O)[C@H](CC(=O)O)NC(=O)CNC(=O)[C@H]([C@@H](C)O)NC(=O)[C@H](Cc2ccccc2)NC(=O)[C@H]([C@@H](C)O)NC(=O)[C@H]([C@@H](C)O)NC(=O)[C@H](CCC(=O)O)NC(=O)[C@H](CC(C)C)NC(=O)[C@H](Cc2c[nH]cn2)NC(=O)[C@H]([C@@H](C)O)NC(=O)[C@H](CCC(N)=O)NC(=O)CNC(=O)[C@H]2CCCN2C(=O)[C@H](CCC(N)=O)NC(=O)[C@H]([C@@H](C)O)NC(=O)[C@H](C(C)C)NC(=O)[C@H](CCCNC(=N)N)NC1=O

Each binder was assayed against T1, (7× His)-PSD-95-PDZ2 wild type (UniProt P78352 160-246) (assay: FP competition).
T1 construct: domain: PDZ2; recombinant from E. coli; also called PSD-95-PDZ2 WT; not shown: 7x His tag
T1 sequence (P78352 160-246): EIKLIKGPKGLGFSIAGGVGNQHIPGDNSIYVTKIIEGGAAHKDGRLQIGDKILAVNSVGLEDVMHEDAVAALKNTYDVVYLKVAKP

Binder | fold improved affinity [fold] | fold decrease in affinity [fold]
THLETTFTGDGTPKTIRVXQPGQ (cyclic; D-Pro; N-methyl Thr 123) [cyclic nNOS β-hairpin peptide N-Me-T123] | 2 | 
XHLETTFTGDGTPKTIRVTQPGQ (cyclic; D-Pro; N-methyl Thr 105) [cyclic nNOS β-hairpin peptide N-Me-T105] |  | 5
THLETTFTGDGTPXTIRVTQPGQ (cyclic; D-Pro; N-methyl Lys 118) [cyclic nNOS β-hairpin peptide N-Me-K118] | 2 | 

Target: T1, (7× His)-PSD-95-PDZ2 wild type
Assay: FP competition
Remark: another data set of the same source
Procedure: (§1) Fluorescence polarization (FP). FP assays were performed in a 384-well plate format. Fluorescence polarization was measured using a Safire 2 plate reader. The instrument Z-factor was optimized for each assay. The G-factor was calibrated to an initial milli polarization value of 20. […] Every measurement was performed in NaPI 50 mM, 50 mM NaCl and 1% BSA at pH 7.2, 25° C. […] The curves were done in triplicates. […] The mili polarization (mP) values were plotted as a function of peptide concentration and fitted to a sigmoidal dose-response curve using Prism software 8.0 (GraphPad). The Kᵢ values were calculated according to Nikolovska-Coleska Z. et al.⁴⁰⁻⁴¹

Binder | Ki [µM] | Relative Ki (Ki mut/Ki WT)
B1 | 17 | 11.3
B2 | 1.55 | 1.03
B3 | 2.23 | 1.49

Target: T1, (7× His)-PSD-95-PDZ2 wild type
Assay: FP competition
Remark: another data set of the same source
Procedure: as §1

Binder | Ki [µM]
XHLETTFTGDGTPKTIRVTQPGQ (cyclic; D-Pro; allo-Thr at 105) [cyclic nNOS β-hairpin peptide AlloT105] | 2.65
THLETXFTGDGTPKTIRVTQPGQ (cyclic; D-Pro; allo-Thr at 110) [cyclic nNOS β-hairpin peptide AlloT110] | 2.29
THLETTFTGDGTPKXIRVTQPGQ (cyclic; D-Pro; allo-Thr at 119) [cyclic nNOS β-hairpin peptide AlloT119] | 8.99
B4 | 0.69
B5 | 0.7
B6 | 1.43

Target: T1, (7× His)-PSD-95-PDZ2 wild type
Assay: FP competition
Remark: another data set of the same source
Procedure: (§2) Fluorescence polarization (FP). FP assays were performed in a 384-well plate format. Fluorescence polarization was measured using a Safire 2 plate reader. The instrument Z-factor was optimized for each assay. The G-factor was calibrated to an initial milli polarization value of 20. […] Every measurement was performed in NaPI 50 mM, 50 mM NaCl and 1% BSA at pH 7.2, 25° C. […] The curves were done in triplicates. Then, the polarization was fitted into a one-site binding model using Prism software 8.0 (GraphPad), from which the Kd can be measured. […] The mili polarization (mP) values were plotted as a function of peptide concentration and fitted to a sigmoidal dose-response curve using Prism software 8.0 (GraphPad). The Kᵢ values were calculated according to Nikolovska-Coleska Z. et al.⁴⁰⁻⁴¹

Binder | Ki [µM]
THLETTFTGDGTPKTIRVTQ[dP]GD-NH2 (lactam N-23) [Cyclo-(105THLETTFTGDGTPKTIRVTQ124pG(Dγ)), Asp side-chain lactam] | 4.29
THLETTFTGDGTPKTIRVTQ[dP]GE-NH2 (lactam N-23) [Cyclo-(105THLETTFTGDGTPKTIRVTQ124pG(Eγ)), Glu side-chain lactam] | 3.6
XHLETTFTGDGTPKTIRVTQPGC (cyclic by thioether (N-terminal acetyl to Cys); D-Pro, also called thioether bridged analogue) [Cyclo-(Ac105…124pGC), Thioether] | 4.8
cyclo(CTHLETTFTGDGTPKTIRVTQ[dP]G) (also called NCL peptide) [Cyclo-(C105THLETTFTGDGTPKTIRVTQ124pG), NCL] | 1.01

Target: T1, (7× His)-PSD-95-PDZ2 wild type
Assay: FP competition
Remark: another data set of the same source
Procedure: Fluorescence polarization (FP). FP assays were performed in a 384-well plate format. Fluorescence polarization was measured using a Safire 2 plate reader. The instrument Z-factor was optimized for each assay. The G-factor was calibrated to an initial milli polarization value of 20. […] Every measurement was performed in NaPI 50 mM, 50 mM NaCl and 1% BSA at pH 7.2, 25° C. […] The curves were done in triplicates. […] The mili polarization (mP) values were plotted as a function of peptide concentration and fitted to a sigmoidal dose-response curve using Prism software 8.0 (GraphPad).
Data was collected in triplicates and is presented as mean of Kᵢ values±SEM

Binder | Ki [µM]
THLETTFTGDGXPKTIRVTQPGQ (cyclic; D-Pro; phospho-Thr 116) [cyclic nNOS β-hairpin peptide pT116] | 0.21
THLETTFXGDGTPKTIRVTQPGQ (cyclic; D-Pro; phospho-Thr 112) [cyclic nNOS β-hairpin peptide pT112] | 2.68
XHLETTFTGDGTPKTIRVTQPGQ (cyclic; D-Pro; phospho-Thr 105) [cyclic nNOS β-hairpin peptide pT105] | 2.93
THLETTFTGDGTPKTIRVXQPGQ (cyclic; D-Pro; phospho-Thr 123) [cyclic nNOS β-hairpin peptide pT123] | 1.15

Target: T1, (7× His)-PSD-95-PDZ2 wild type
Assay: FP competition
Remark: another data set of the same source
Procedure: as §2

Binder | Ki [µM]
THLETTFTGDGTPKTIRVTXPGQ (cyclic; D-Pro; N-methyl Gln 124) [cyclic nNOS β-hairpin peptide N-Me-Q124] | 2.2
THLETTFTGDGTPKXIRVTQPGQ (cyclic; D-Pro; N-methyl Thr 119) [cyclic nNOS β-hairpin peptide N-Me-T119] | 4.88
THLETTFTGDGTPKTIRVXQPGQ (cyclic; D-Pro; N-methyl Thr 123) [cyclic nNOS β-hairpin peptide N-Me-T123] | 0.58
THLETTFTGXGTPKTIRVTQPGQ (cyclic; D-Pro; N-methyl Asp 114) [cyclic nNOS β-hairpin peptide N-Me-D114] | 0.62
XHLETTFTGDGTPKTIRVTQPGQ (cyclic; D-Pro; N-methyl Thr 105) [cyclic nNOS β-hairpin peptide N-Me-T105] | 4.8
THLETTFTGDGTPXTIRVTQPGQ (cyclic; D-Pro; N-methyl Lys 118) [cyclic nNOS β-hairpin peptide N-Me-K118] | 0.48
THLETTFTGDXTPKTIRVTQPGQ (cyclic; D-Pro; N-methyl Gly 115) [cyclic nNOS β-hairpin peptide N-Me-G115] | 0.82
THLETTFTGDGTPKTXRVTQPGQ (cyclic; D-Pro; N-methyl Ile 120) [cyclic nNOS β-hairpin peptide N-Me-I120] | 1.12
THLETXFTGDGTPKTIRVTQPGQ (cyclic; D-Pro; N-methyl Thr 110) [cyclic nNOS β-hairpin peptide N-Me-T110] | 1.47
THLETTFTGDGTPKTIXVTQPGQ (cyclic; D-Pro; N-methyl Arg 121) [cyclic nNOS β-hairpin peptide N-Me-R121] | 0.99
THLETTFXGDGTPKTIRVTQPGQ (cyclic; D-Pro; N-methyl Thr 112) [cyclic nNOS β-hairpin peptide N-Me-T112] | 1.08
THLETTFTGDGTPKTIRXTQPGQ (cyclic; D-Pro; N-methyl Val 122) [cyclic nNOS β-hairpin peptide N-Me-V122] | 6.17
THLETTFTGDGXPKTIRVTQPGQ (cyclic; D-Pro; N-methyl Thr 116) [cyclic nNOS β-hairpin peptide N-Me-T116] | 0.93
THLETTFTXDGTPKTIRVTQPGQ (cyclic; D-Pro; N-methyl Gly 113) [cyclic nNOS β-hairpin peptide N-Me-G113] | 6.19
